Results: patent US20040152869A1 (SCHERING, published 2004)
Ends that are not written are not given here.

Tests used:
[1] = target: T1, proteolytic ADAM33 polypeptide (wild-type ADAM33 catalytic domain with Ser-Gly-His6 Tag, expressed in … (Homo sapiens (Human), UniProt Q9BZ11 204-409)); experiment: cell-based or functional assay
T1 sequence: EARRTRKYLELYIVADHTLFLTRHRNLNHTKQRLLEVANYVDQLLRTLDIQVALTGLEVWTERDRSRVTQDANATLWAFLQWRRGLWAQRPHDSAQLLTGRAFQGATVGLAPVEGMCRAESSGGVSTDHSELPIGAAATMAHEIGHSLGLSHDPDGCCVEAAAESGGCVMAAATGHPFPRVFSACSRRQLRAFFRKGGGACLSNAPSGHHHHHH

[2] = target: T2, Ac-Tyr-Glu-Val-Ala-His-Gln-Lys-Leu-Val-Phe-NH2 (SEQ ID NO: 13)
T2 chain: YEVAHQKLVF

[3] = target: T3, 10-mer truncated form of APP28, YEVHH-QKLVF (SEQ ID NO: 8)
T3 chain: YEVHHQKLVF

## Ac-YEVAHQKLVF-NH2 [Ac-Tyr-Glu-Val-Ala-His-Gln-Lys-Leu-Val-Phe-NH2 (SEQ ID NO: 13)]
[1]
  Relative Activity: 1

## SGYEVAHQKLAFFA-OH [SGYEVAH*QKLAFFA-OH (SEQ ID NO: 11)]
[1]
  Relative Activity: 1.2

## EVAHQKLA-OH [EVAH*QKLA-OH (SEQ ID NO: 37)]
[1]
  Relative Activity: 0.1

## YEVAHQKLA-OH [YEVAH*QKLA-OH (SEQ ID NO: 12)]
[1]
  Relative Activity: 0.9

## SGYEVAHQKLA-OH [SGYEVAH*QKLA-OH (SEQ ID NO: 9)]
[1]
  Relative Activity: 0.5

## YEVAHQKLAF-OH [YEVAH*QKLAF-OH (SEQ ID NO: 7)]
[1]
  Relative Activity: 1.1

## Ac-VAHQKL-NH2 [Ac-VAH*QKL-NH2 (SEQ ID NO: 38)]
[1]
  Relative Activity: 0

B1: proteolytic ADAM33 polypeptide (wild-type ADAM33 catalytic domain with Ser-Gly-His6 Tag, expressed in Drosophila S2 cells) (protein)
chain: T1 sequence
[2]
  kcat/Km: kcat/Km=10,000 M-1s-1
  rate of cleavage relative to the 10-mer truncated form of APP28 (SEQ ID NO: 8): at a rate seventeen times greater than the 10-mer truncated form of APP28 (SEQ ID NO: 8)
[3]
  cleavage: identification of a 10-mer peptide substrate of a proteolytic ADAM33 polypeptide
